In experiment [1] the target is recombinant PolB1 of Sulfolobus solfataricus (Sulfolobus solfataricus) (UniProt P26811).
Experiment [2] shares this target. Briefly: native MS; PolB1-HE complex at 4.2 μM in 50 mM ammonium acetate, nano ESI, Synapt G2S.

UniProt P26811, sequence (P26811 36-882): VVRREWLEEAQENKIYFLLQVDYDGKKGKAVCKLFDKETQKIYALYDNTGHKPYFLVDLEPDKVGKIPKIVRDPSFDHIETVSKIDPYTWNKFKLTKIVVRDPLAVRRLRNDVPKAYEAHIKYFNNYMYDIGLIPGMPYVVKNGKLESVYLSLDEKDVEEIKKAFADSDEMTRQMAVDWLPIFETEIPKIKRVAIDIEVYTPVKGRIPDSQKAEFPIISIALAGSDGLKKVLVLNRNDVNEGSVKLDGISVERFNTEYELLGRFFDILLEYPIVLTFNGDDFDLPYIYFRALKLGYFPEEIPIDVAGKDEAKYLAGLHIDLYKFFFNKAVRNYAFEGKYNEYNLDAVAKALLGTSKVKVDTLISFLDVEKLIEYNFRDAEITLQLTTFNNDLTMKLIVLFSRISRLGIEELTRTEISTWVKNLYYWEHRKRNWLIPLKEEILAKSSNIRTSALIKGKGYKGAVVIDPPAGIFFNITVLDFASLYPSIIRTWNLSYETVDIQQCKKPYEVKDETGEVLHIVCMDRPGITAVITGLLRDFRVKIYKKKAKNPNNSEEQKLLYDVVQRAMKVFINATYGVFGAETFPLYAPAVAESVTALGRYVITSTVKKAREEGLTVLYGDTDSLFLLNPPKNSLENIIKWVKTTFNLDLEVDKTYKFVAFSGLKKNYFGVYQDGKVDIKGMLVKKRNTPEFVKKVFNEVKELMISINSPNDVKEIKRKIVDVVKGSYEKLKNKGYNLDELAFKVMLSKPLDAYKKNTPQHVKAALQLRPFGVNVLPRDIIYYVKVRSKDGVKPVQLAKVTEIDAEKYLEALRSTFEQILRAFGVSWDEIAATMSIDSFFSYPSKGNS

Turning to “PBP1ΔC, PBP1 C-terminal tail deletion mutant (from UniProt Q980X5 1-78) (domain or fragment)”, the kinetics of excision of the 3′ nucleotide (dGMP) in experiment [1] was determined as 6 fold.

One may read the stoichiometry N as a count of units in the complex or per binding partner. For “recombinant PBP1 of Sulfolobus solfataricus (SSO0150) (from UniProt Q980X5 1-118) (natural protein)”, the stoichiometry N in experiment [2] came out at 1.

On to “recombinant PBP2 of Sulfolobus solfataricus (SSO6202) (natural protein)”, for which the stoichiometry N in experiment [2] is 1.

The values above are taken from PMC5418573.
